{
  "source": "IntAct's records for PubMed 33513601",
  "target": "un13d_human UNC13D (UniProt Q70J99)",
  "sequence (Q70J99 whole entry)": "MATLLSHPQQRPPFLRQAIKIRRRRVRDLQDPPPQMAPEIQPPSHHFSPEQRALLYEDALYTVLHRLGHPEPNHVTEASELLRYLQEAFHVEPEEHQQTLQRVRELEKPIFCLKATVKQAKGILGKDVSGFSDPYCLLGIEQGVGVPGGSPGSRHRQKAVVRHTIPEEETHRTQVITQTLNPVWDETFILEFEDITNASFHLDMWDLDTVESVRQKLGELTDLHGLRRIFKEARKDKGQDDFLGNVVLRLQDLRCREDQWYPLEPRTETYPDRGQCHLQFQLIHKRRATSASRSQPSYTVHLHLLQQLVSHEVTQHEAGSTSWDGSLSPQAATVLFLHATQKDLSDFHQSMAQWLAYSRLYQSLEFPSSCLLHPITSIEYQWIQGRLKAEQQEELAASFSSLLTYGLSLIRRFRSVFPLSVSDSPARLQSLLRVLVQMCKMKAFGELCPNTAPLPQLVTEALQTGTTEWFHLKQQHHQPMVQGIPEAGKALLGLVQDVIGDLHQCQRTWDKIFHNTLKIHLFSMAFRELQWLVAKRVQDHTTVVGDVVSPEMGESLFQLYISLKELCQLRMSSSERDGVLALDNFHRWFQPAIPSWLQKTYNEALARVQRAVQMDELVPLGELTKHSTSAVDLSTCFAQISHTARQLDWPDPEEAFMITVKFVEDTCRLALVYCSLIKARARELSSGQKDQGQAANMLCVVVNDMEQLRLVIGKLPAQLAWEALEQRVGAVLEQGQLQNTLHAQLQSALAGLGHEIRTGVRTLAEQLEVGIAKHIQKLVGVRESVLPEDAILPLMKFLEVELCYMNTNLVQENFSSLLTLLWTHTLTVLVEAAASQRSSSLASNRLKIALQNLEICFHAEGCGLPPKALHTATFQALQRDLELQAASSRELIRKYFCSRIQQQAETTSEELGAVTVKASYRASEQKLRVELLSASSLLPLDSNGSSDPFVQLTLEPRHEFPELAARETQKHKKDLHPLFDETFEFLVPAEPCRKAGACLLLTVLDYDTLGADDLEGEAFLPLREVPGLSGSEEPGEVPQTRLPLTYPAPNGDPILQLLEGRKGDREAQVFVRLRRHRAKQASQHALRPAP",
  "data": [
    {"substance": "Rho-related GTP-binding protein RhoG (Homo sapiens), P84095 Q61L", "values": [
      {"measurement": "effect of a mutation on the interaction", "value": "with no effect"}
    ]}
  ]
}
